Data: article PMC2978336

Experiments:
DnaD-Cd206 = target: T1, DnaD-Cd206 (Bacillus subtilis, UniProt P39787 129-206); assay: NMR
T1 sequence: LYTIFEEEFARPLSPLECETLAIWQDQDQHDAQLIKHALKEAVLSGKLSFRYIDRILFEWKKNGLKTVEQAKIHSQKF

DnaD-Cd (DnaD-Cd232) = target: T2, DnaD-Cd (DnaD-Cd232) (Bacillus subtilis, UniProt P39787 129-232); assay: NMR
T2 sequence: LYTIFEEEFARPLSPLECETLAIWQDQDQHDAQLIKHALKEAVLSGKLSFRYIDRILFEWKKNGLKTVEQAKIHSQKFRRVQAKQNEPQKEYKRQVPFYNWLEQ

DnaD-Cd196 [1] = target: T3, DnaD-Cd196 (Bacillus subtilis, UniProt P39787 129-196); assay: NMR
T3 sequence: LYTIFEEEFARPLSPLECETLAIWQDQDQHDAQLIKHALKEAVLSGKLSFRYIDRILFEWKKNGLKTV

DnaD-Cd215 = target: T4, DnaD-Cd215 (Bacillus subtilis, UniProt P39787 129-215); assay: NMR
T4 sequence: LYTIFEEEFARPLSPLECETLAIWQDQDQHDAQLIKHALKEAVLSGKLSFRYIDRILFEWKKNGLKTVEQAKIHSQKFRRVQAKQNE

DnaD-Cd196 [2] = target: T3, DnaD-Cd196; assay: EMSA

B1: 10-mer ssDNA (ssDNA)
DNA: GTTATTGCTC
DnaD-Cd206
  binding result: no binding
DnaD-Cd (DnaD-Cd232)
  binding result: binds
DnaD-Cd196 [1]
  binding result: no binding
DnaD-Cd215
  binding result: binds

B2: Y180AF ss probe (ssDNA)
DNA: CTCAGTTTCCGCGCGATTGACCGGATT
DnaD-Cd196 [2]
  binding result: no binding
